Key:
[1] = molecular target: SecA^A795C-FL (SecA with a fluorescein label at position 795 on the tip of the two-helix finger) (E. coli) (UniProt P10408); experiment: other fluorescence titration; as a1 (10 nM SecA*, TSG buffer, 0.02% DDM, 2 mM MgCl2, 1 mM AMPPNP) with SecYLGEG pre-incubated with 100 mM DTT
[2] = molecular target: SecA^A795C-FL (SecA with a fluorescein label at position 795 on the tip of the two-helix finger) (E. coli) (UniProt P10408); experiment: other fluorescence titration; 10 nM SecA* fixed, SecYEG varied; quenching of the fluorescein on SecA*; TSG buffer (20 mM Tris pH 7.5, 130 mM NaCl, 10% glycerol) with 0.02% DDM, 2 mM MgCl2, 1 mM AMPPNP; no DTT; fitted to a tight binding equation

Substance	Kd [1]	Kd [2]
SecYLGEG pre-incubated with 100 mM DTT (disulphide between S87C and F286C of SecY reduced) (from UniProt P0AGA2 1-443; P0AG96 1-127; P0AG99 1-110) (complex)	19 nM	–
SecYLGEG, oxidised (SecYEG with the lateral gate closed by a disulphide bond between S87C and F286C of SecY) (from UniProt P0AGA2 1-443; P0AG96 1-127; P0AG99 1-110) (complex)	–	41 nM

From paper PMC4907695
